Laboratory results from the supplement of paper PMC12042874.
± gives the uncertainty stated by the source.

test: amyloid nucleation score (Sup35N fusion, yeast selection) (log enrichment); library NNK3; higher = more nucleation; inactive = no reads after selection
In short: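 Nucleation score is defined as the DiMSum log enrichment of output over input reads, with centring on the mode score of non-aggregating sequences. A minimum of 100 input reads was required for each sequence. Reads came from Illumina sequencing of plasmid inserts from psi-negative yeast expressing Sup35N fused to peptides of 20 random codons, induced with 100 μM copper sulfate for 24 hours and grown 7 days at 30°C on medium lacking adenine and uracil.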

Substance | amyloid nucleation score
HYRYGKHREKMLMSAIVWLS | inactive
HYWEVYLGTCLRAQDVQER | 1.57 ± 0.097
HYWVLSFLNETALIIEFWH | inactive
HYYVSTDLWSIMMYTILRPC | inactive
IAAIGLELYWFFIVSIWGY | inactive
IAARW | inactive
IADCVLIN | inactive
IAFTNLVKVCGLTGYA | inactive
IAGMCGRGWREPLVERSGKD | inactive
IAHVMYNYQHVTSCNMSSVL | 0.726 ± 0.13
IALSGRYRDSAACRDSCHVA | inactive
IAVDFRYCYDYGSNSSCRLA | 1.88 ± 0.11
ICDSDFRY | inactive
ICEQKEFPYVEQWLD | inactive
ICGIDSLN | inactive
ICIFVFFRYWHVVHVT | inactive
ICINVESIKPMRWQAMI | inactive
ICKNYSVLVLRFGGSEGPTV | 1.52 ± 0.1
ICNSY | inactive
ICPTWELNIRP | inactive
ICRQS | inactive
ICSSFDGQ | 0.458 ± 0.2
ICSVVIEGVFLRRLWDSRVS | inactive

Substance | amyloid nucleation score
ICWLVMEVLG | inactive
ICYTALGCYISSQFSGWGRM | 1.12 ± 0.088
IDCCWSCV | 0.16 ± 0.34
IDFRFFQPQAVCGNLSCYRE | 0.227 ± 0.23
IDIVCAF | inactive
IDLKGLGLYSTSEVWARQQK | inactive
IDLSAMFFAFFVIFVFVWIW | inactive
IDLTTDSLDM | inactive
IDNMAVIYWTVNFVCRVW | 1.26 ± 0.085
IDRFHYSLTTDT | inactive
IDSAEASCIGCLVRQCADPI | inactive
IDSNGYVLLVRDGREKVVRC | 0.204 ± 0.29
IDVTQERRVGDSTCALGTH | -0.168 ± 0.73
IEDQHLHVVLTGWGSKLSGH | inactive
IEIFEFFSRSSNRSQPGAPL | inactive
IELVFAHVYCGMRWNSEASR | 1.4 ± 0.084
IERCVFAFCYCSLGQSAKSF | 1.49 ± 0.14
IERSDSVSWRGVLVGIEMKV | inactive
IESKLDAYTLCVGSSNWLWM | inactive
IEVQFENFSCSR | inactive
IEYRKITKLIKLGISGVERS | -0.978 ± 1.3
IFFAMISCTYLLDCVDRNWG | inactive
IFIYGPLPPVRCYHYDWWNL | inactive

Substance | amyloid nucleation score
IFLFSSRCALDNIVEPWFFW | inactive
IFMITDQ | inactive
IFNALCYTWESRFLRTEVVS | inactive
IFNGRDNLQLDVWLGGYFLV | inactive
IFQKIECLTGMGIVGCSTSM | inactive
IFSNRGFQLCWFSYMLSVHT | inactive
IFWHQRRLMTCCNKYTFGYG | inactive
IGFAD | inactive
IGGVAGQRGSIA | inactive
IGKFPDRCTFVQTKYFYVRS | 1.48 ± 0.075
IGKRIFKLCVMYGYYLHLNF | inactive
IGKVLDAFGE | inactive
IGMTRGMGLVVFYSRYMWDD | inactive
IGRISMAIMWIGVGVA | inactive
IGSAISGNYYTINNCDFDTS | inactive
IGSAVIWVFFCNGSGVGDGT | 2.08 ± 0.09
IGSYIKEGCAITMSRPLFKG | inactive
IGTTEQ | inactive
IGWGVQFELFGTWRVEIPLV | inactive
IGWKEVSA | -0.006 ± 0.35
IGYGGSIPRHSTCDVSLQRW | inactive
IHIFTLKYKVRARKLATTIS | inactive
IHKLHYIYGGLMSTWLLEDT | inactive

Substance | amyloid nucleation score
IHMPHLGIGSKKRVSVRGDA | inactive
IHWGRAGATEAAST | inactive
IICIYKIPKFTTRKLILRVY | inactive
IIIRGSSVLVVRLNDEGYVL | 0.216 ± 0.63
IIKDLPVCVDERASYAEVMS | inactive
IILFKCWCKWEASGSATIVD | inactive
IIMRDYTAMCI | inactive
IIMSQMVYIVRDIHFVCWVI | inactive
IIPRIALPVCFVPYGLRRSS | inactive
IIRALARFLVNVGV | inactive
IISDQEFSYETCDFSYFCKG | inactive
IISQAQFSVAYLLCWRQCYV | 1.2 ± 0.082
IISVIVTVYR | inactive
IIVFLRLSPELCVMCVRR | inactive
IIVMDCNGKLNGINHWVRVD | inactive
IKCIPFCDVGWSLTVLRYVT | inactive
IKSCGVNNIAFLQVCHRWCS | 1.6 ± 0.082
IKSHVAIDSVPER | inactive
IKWVCTEVRSGCLSVDCVLV | inactive
ILAVAPVVPGVVLGRNCRAR | inactive
ILCVFVYRSRAESYEL | 0.446 ± 0.23
ILFKLVKWSAMSFLRCRLFS | -0.797 ± 1.4
ILFLSLRSYSLNGFSDIMYY | inactive

Substance | amyloid nucleation score
ILIDSGSTLFSIIFQGLLLI | inactive
ILIGWMILWAICLPKLVDDG | inactive
ILIYVQML | 0.521 ± 0.22
ILKMFTSGYCRVLWDLVVMV | inactive
ILMRTGFILCATST | inactive
ILPGRHCGGASMHTQTCQ | inactive
ILQCGS | inactive
ILSVYDFNWFWKAKRDLYIS | inactive
ILTYINEMSHLPWV | inactive
ILVFILYHCCIIHLGLNLAK | inactive
ILVKIRNRCLEVE | -0.32 ± 1.1
ILVTLMVYIPHEYISVINLL | inactive
ILVWNLYLT | 2.54 ± 0.053
ILYVLCIFLCGAAIFSLTVL | inactive
IMEEFVTIFDYLQMAMFTRR | inactive
IMFSVRRLKSILSRVAWYNT | inactive
IMGYGWDCTSDGLCVTCFYS | inactive
IMHIYYTYSIPLCDRRGRSY | 0.856 ± 0.26
IMSNTLIHYLHRMLSSALCY | inactive
IMVKVW | inactive
INHFLFYANNRYRRHILVGC | inactive
INICLLLKQRHEWMCCKNCM | 2.85 ± 0.074
INLFICMCEKGYPHDSWVCC | 2.58 ± 0.083

Substance | amyloid nucleation score
INNTAPPQTYPR | inactive
INRVHLYRLLKW | inactive
INSEWIQSSAMFHPIMGRFR | -0.188 ± 1.5
INWGWLPCTRTSTIGSRGRS | inactive
IPRYVWNVPRWYVYQFVCGA | 0.27 ± 0.54
IPTSLCGGAQLGRTRVLFLW | inactive
IQCYNLSLPAGGEKLVRKRV | inactive
IQLICEAIAGFLYNVIFVVL | inactive
IQTSNTHVVLVFFGRILRIC | inactive
IQWFRQCSFRCSNHYSSAFK | 1.44 ± 0.14
IRAEGQKIYDLPSFCVLIPR | inactive
IRCMRGTTRHVSGLKRVERN | inactive
IRESFINGVYMVVSEFKCFT | inactive
IRFAAMFFALLLRRDESSYE | inactive
IRFYQKCVLSACVTSTRIMV | inactive
IRIKVRLHVSIYFNIFR | inactive
IRPSLLMSLQNNDMMADLEV | -0.538 ± 0.55
IRRLQINRAKHAILLLHYNW | inactive
IRRWPWYIMCYVLLQSFLSL | inactive
IRSDG | inactive
IRSIEPYPMHTTSW | -0.428 ± 1.1
IRSLLLILVRSAVPSALSVN | inactive
IRSTGLINFQYWKMKTFLII | inactive

Substance | amyloid nucleation score
IRSVL | inactive
IRSVVIRVSFYFTWF | inactive
IRTNYRRGKEAGVSGADSCS | inactive
IRTQYQEREASILYM | inactive
IRVLVCIFWKTCPPNYVCRI | inactive
IRYALTINYSNTVL | 0.457 ± 0.24
ISCLDGCFS | inactive
ISESKLMLTRWDGVFVTIWD | inactive
ISFYKGYLKFNL | inactive
ISGLSNMAYFLVNAWKLM | inactive
ISIFRRTGFAWFWENV | inactive
ISIFSIRNMVYNLQVRLVLE | inactive
ISILEVKMWLLWTELERTIT | inactive
ISKAVSWCASCRSTQV | inactive
ISNLRSVVLWNSRLQRNRGW | inactive
ISRAVRILVVFDEVWMCSDG | inactive
ISRGALYLGMTATMRVQSGF | inactive
ISRSVIIDSQRGLCCQTWDW | inactive
ISSIYREYLLKHGMFRKRRK | inactive
